The results in this text go back to patent publication US10973880B2, “Compositions and methods for treating pulmonary hypertension” (Acceleron Pharma Inc., priority 2016, dated 2021).

The target of one experiment is T1, GDF11 (Homo sapiens, UniProt O95390).
T1 sequence (O95390 299-407): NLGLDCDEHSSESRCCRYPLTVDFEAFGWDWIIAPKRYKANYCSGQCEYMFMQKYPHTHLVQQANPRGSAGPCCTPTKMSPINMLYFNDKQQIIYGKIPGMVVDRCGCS
Put plainly: A-204 reporter gene assay, pGL3(CAGA)12 luciferase. In kind it is cell-based. The conditions noted are these: Example 13. An excerpt: Day 1: Split A-204 cells into 48-well plate. […]
(§1) In addition, an A-204 Reporter Gene Assay was used to evaluate the effects of ALK4-Fc:ActRIIB-Fc heterodimer and ActRIIB-Fc:ActRIIB-Fc homodimer on signaling by activin A, activin B, GDF11, GDF8, BMP10, and BMP9. Cell line: Human Rhabdomyosarcoma (derived from muscle). Reporter vector: pGL3(CAGA)12 (as described in Dennler et al, 1998, EMBO 17: 3091-3100). The CAGA12 motif is present in TGFβ responsive genes (PAI-1 gene), so this vector is of general use for factors signaling through Smad2 and 3. An exemplary A-204 Reporter Gene Assay is outlined below. • Day 1: Split A-204 cells into 48-well plate. • Day 2: A-204 cells transfected with 10 ug pGL3(CAGA)12 or pGL3(CAGA)12(10 ug)+pRLCMV (1 ug) and Fugene. • Day 3: Add factors (diluted into medium+0.1% BSA). Inhibitors need to be pre-incubated with Factors for about one hr before adding to cells. About six hrs later, cells are rinsed with PBS and then lysed.
(§2) Following the above steps, a Luciferase assay was performed.
A general note: A reporter such as luciferase makes a cellular process visible.

Experiment [1] concerns rat model of pulmonary arterial hypertension (PAH), monocrotaline (MCT) induced. Put plainly: monocrotaline rat model of pulmonary arterial hypertension. Type of experiment: in vivo, Sprague Dawley rats. As to the method: The effects of an ActRIIA-mFc fusion protein (ActRIIA-mFc homodimer as described in Example 1), an ALK4-Fc-ActRIIB-Fc heterodimer (as described in Examples 12 and 13), and sildenafil (a phosphodiesterase-5 inhibitor approved for the treatment of PAH) were examined in a rat model of pulmonary arterial hypertension (PAH). In this model, Sprague Dawley rats received a […] injection of monocrotaline (MCT) to induce PAH 24 hours prior to start of therapy.
Rats were separated into different treatment groups (10 mice per group): 1) treatment with MCT (60 mg/kg administered i.p. as a single dose at day 1 of study) and Tris buffered saline (i.p. as 1 ml/kg, every three days) (vehicle treatment group), 2) treatment with an ActRIIA-mFc polypeptide (10 mg/kg administered i.p. every three days) and MCT (60 mg/kg administered i.p. as a single dose at day 1 of study), 3) treatment with an ALK4-Fc:ActRIIB-Fc heterodimer (10 mg/kg administered i.p. every three days) and MCT (60 mg/kg administered i.p. as a single dose at day 1 of study), 4) treatment with sildenafil (30 mg/kg administered orally twice daily) and MCT (60 mg/kg administered i.p. as a single dose at day 1 of study), and 5) control rats (Tris buffered saline administered i.p. as 1 ml/kg, every three days). Rats were treated for 28 days. Body weights were recorded prior to first dose on Day 1 and then weekly throughout the study.
On day 28, rats were anesthetized by an intraperitoneal injection of ketamine/xylazine (80/10 mg/kg). An incision was made in the neck, and a jugular vein was isolated and ligated anteriorly. A fluid-filled pressure catheter was introduced into the right jugular vein to measure pulmonary artery pressure (PAP). Another incision was made in the inguinal region, and femoral artery was isolated and ligated anteriorly. A Millar pressure catheter was introduced into a femoral artery to measure systolic arterial pressure, diastolic pressure, and heart rate. Mean arterial pressure and right PAP were monitored using the Notocord HEM (Croissy sur Seine, Frnace) v3.5 data capture system for approximately 5-10 minutes until stable measurements were obtained. During the measurements, rats were maintained at approximately 37° C. on a heating pad and body temperature was monitored throughout the procedure with a rectal temperature probe. At the conclusion of the procedure, rats were euthanized, and the hearts and lungs were removed. The entire heart was weighed. Next, the atria were removed and the left ventricle with septum (LV+S) was separated from the right ventricle (RV). The ventricles were weighed separately. Hypertrophy was assessed, in part, by calculating RV/LV+S. The lungs were also weighed.
Similar trends were observed on vessel muscularity based on histopathologic scoring. After staining tissue samples to detect αSMA/elastin, 100 pulmonary arterioles, between 10 μm and 50 μm in size, per animal were categorized as non-muscularized, partially muscularized, or completely muscularized. Pulmonary arterioles from vehicle treated rats were determined to be 62.3% completely muscularized, 36.4% partially muscularized, and 1.4% non-muscularized. […] Histopathological scoring of smooth muscle hypertrophy of pulmonary arterioles were also recorded as follows: 0 (normal), 1 (minimal), 2 (mild), 3 (moderate), or 4 (marked).

The target in the next experiment is T2, BMP9 (Homo sapiens, UniProt Q9UK05).
T2 sequence (Q9UK05 320-429): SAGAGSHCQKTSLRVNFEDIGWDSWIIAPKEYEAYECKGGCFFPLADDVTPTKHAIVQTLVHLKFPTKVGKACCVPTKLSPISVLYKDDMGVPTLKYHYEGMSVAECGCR
Put plainly: A-204 reporter gene assay, pGL3(CAGA)12 luciferase. Type of experiment: cell-based. On the set-up: host or cells: exogenous factor added to A-204 cells (human rhabdomyosarcoma). As to conditions: Example 13.
From the text: as §1, §2

In a further experiment the target is T3, activin B (Homo sapiens, UniProt P09529).
T3 sequence (P09529 293-407): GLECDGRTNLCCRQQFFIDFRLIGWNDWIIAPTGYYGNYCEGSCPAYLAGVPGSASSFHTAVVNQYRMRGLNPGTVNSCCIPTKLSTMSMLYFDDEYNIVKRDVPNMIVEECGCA
Put plainly: A-204 reporter gene assay, pGL3(CAGA)12 luciferase. In kind it is cell-based. As to conditions: Example 13. On the set-up: host or cells: exogenous factor added to A-204 cells (human rhabdomyosarcoma).
From the text: as §1, §2

In a further experiment the target is T4, BMP10 (Homo sapiens, UniProt O95393).
T4 sequence (O95393 317-424): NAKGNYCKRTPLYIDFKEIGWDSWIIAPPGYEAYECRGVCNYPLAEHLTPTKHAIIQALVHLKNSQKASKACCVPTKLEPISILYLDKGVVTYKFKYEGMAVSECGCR
Put plainly: A-204 reporter gene assay, pGL3(CAGA)12 luciferase. In kind it is cell-based. On the set-up: host or cells: exogenous factor added to A-204 cells (human rhabdomyosarcoma). As to conditions: Example 13.
From the text: as §1, §2

B1: ALK4-Fc:ActRIIB-Fc heterodimer: heteromeric complex of extracellular domains of human ActRIIB and human ALK4, each separately fused to an Fc domain with a linker (protein)
chain 1: SGPRGVQALLCACTSCLQANYTCETDGACMVSIFNLDGMEHHVRTCIPKVELVPAGKPFYCLSSEDLRNTHCCYTDYCNRIDLRVPSGHLKEPEHPSMWGPVE
chain 2: GRGEAETRECIYYNANWELERTNQSGLERCEGEQDKRLHCYASWRNSSGTIELVKKGCWLDDFNCYDRQECVATEENPQVYFCCCEGNFCNERFTHLPEAGGPEVTYEPPPTAPT
modifications: left off: a dimerising Fc or GST; small tags and cut ends
notes: heteromeric complex of extracellular domains of human ActRIIB and human ALK4, each separately fused to an Fc domain with a linker
For B1, in the experiment with GDF11, the “inhibition of GDF11 signaling” value was “potent inhibitors”. The “improvement in body weight” value in experiment [1] (28 days, compared to monocrotaline treated rats, proteins 10 mg/kg i.p. every three days, sildenafil 30 mg/kg orally twice daily) is reported as “+5.1%”. Further, the “decrease of right heart hypertrophy” value in experiment [1] (day 28, RV/LV+S, compared to monocrotaline treated rats) is listed as 39.6%. For the same molecule, in experiment [1] (day 28, compared to monocrotaline treated rats), the “decrease of lung weight” value is 19.0%. Also, the “reduction of elevated PAP” value in experiment [1] (day 28, compared to monocrotaline treated rats, same dosing) is 44.6%. Besides, the “effect in reducing vascular muscularization compared with sildenafil” value in experiment [1] (monocrotaline-induced model) was “greater effect”. The “inhibition of BMP9 signaling pathway compared to ActRIIB-Fc:ActRIIB-Fc homodimer” value in the experiment with BMP9 was “significantly reduced”. Also, the “inhibition of activin B signaling” value with activin B is given as “potent inhibitors”. The “inhibition of BMP10 signaling pathway compared to ActRIIB-Fc:ActRIIB-Fc homodimer” value with BMP10 is on record as “significantly reduced”.
